{"source": "paper PMC7035975", "about": "(Journal of molecular and cellular cardiology, 2019)", "proteins": {"B1": {"name": "L31A phospholamban mutant (untagged) (natural protein, human, UniProt P26678 1-52, looked up)", "chain": "MEKVQYLTRSAIRRASTIEMPQQARQKLQNAFINFCLILICLLLICIIVMLL"}}, "target": "the molecule itself", "assay": "SDS-PAGE and immunoblot of the PLB pentamer"}
{"protein": "B1", "values": [{"measurement": "stoichiometry N", "value": 5}]}
